For the assay, the target named is monkey CADM3 (cynomolgus monkey). The assay can be described thus: flow cytometry, 10 ug/mL, monkey CADM3/Expi293F vs parent Expi293F cells. Background: In flow cytometry, cells or beads pass a laser one at a time.

We go through seven molecules from patent US20210147541A1.

Sequence of monkey CADM3 (cynomolgus monkey) (Q8N126 25-398 S206N limits assumed, form in doubt): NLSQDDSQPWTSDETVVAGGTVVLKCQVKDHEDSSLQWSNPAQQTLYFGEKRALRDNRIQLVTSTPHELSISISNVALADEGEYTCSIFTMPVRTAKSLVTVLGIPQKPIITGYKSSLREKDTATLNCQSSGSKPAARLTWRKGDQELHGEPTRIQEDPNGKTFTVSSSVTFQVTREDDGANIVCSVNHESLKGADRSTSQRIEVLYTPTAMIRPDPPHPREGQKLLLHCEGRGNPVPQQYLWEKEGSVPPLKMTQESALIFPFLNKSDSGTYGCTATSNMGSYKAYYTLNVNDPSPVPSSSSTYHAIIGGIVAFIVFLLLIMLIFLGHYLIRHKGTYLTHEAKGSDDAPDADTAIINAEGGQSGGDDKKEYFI

B1: CADM301 scFv-hG4PE (Fc fusion)
VH: QVQLVQSGAEVRRPGTSVKVSCKASGYSFTSYDINWVRLATGQGLEWMGWMNPNTGDTGSPQKFQDRVTMTRDISTGTAYLELRGLKSEDTAIYYCARGFLVTAYTAEFFPHWGQGTLVTVSS
VL: SYVLTQPPSVSVAPGKTARLTCGGNNIGSKSVHWYQQRPGQAPVLVINYDSDRPSGIPERFSGSNSENTATLTISRVEAGDEADYYCQVWDSGSDHVVFGGGTQLIIL
As to B1, the Mean fluorescence intensity ratio was determined as 5.72.

B2: iCADM3_3R1-L11 VHH-hG4PE(R409K) (Fc fusion, not shown: a dimerising Fc or GST)
chain: QVQLVESGGGLVQAGGSLRLSCAASGSIFSFNAMGWYRQAPGKQRGLVAVITSGGYTNYADSVKGRFTITRDNAKNTVYLQMNSLKPEDTAVYYCNAEGVYSDYVIMNYWGQGTQVTVSS
Take B2: the Mean fluorescence intensity ratio turned out to be 35.3.

B3: iCADM3_3R1-L5 VHH-hG4PE(R409K) (Fc fusion, not shown: a dimerising Fc or GST)
chain: QVQLVESGGGLVQAGGSLRLSCAASGSIVSVNAMGWYRQAPGKQRELVATITSGGSTNYADSAKGRFTISRDNAKNTMYLQMNSLKPEDTAVYYCNGEFWSRRDTRPPGVVNYWGQGTQVTVSS
For the molecule B3, the Mean fluorescence intensity ratio worked out at 26.6.

B4: anti-AVM antibody (antibody, V domains shown)
VH: EVQLVESGGGLVQPGRSLKLSCAASGFTFSNYAMAWVRRAPTKGLEWVASISNGGGNTYYRDSVKGRFTISRDDAKNTLYLQMDSLRSEDTATYYCARHGNYIYYGSFFDYWGQGVMVTVSS
VL: QFVLSQPNSVSTNLGSTVKLSCKRSTGNIGSNYVSWYQQHEGRSPTTMIYRDDKRPDGVPDRFSGSIDRSSDSALLTINNVQTEDEADYFCQSYSSGINIFGGGTKLTVLG
Turning to B4, the Mean fluorescence intensity ratio amounted to 1.02.

B5: iCADM3_3R1-L10 VHH-hG4PE(R409K) (Fc fusion, not shown: a dimerising Fc or GST)
chain: QVQLVESGGGLVQAGGSLRLSCAASGSIFSIHAMGWYRQAPGKQRELVATVTSGGSTNYADSVKGRFTISRDNAKNTVYLQMNSLKPEDTAVYYCNAETPYYSSTYYTNYWGQGTQVTVSS
As to B5, the Mean fluorescence intensity ratio was found to be 36.5.

B6: CADM3102 scFv-hG4PE (Fc fusion)
VH: QMQLVQSGAEVKKPGSSVKVSCKASGGTFSSYAISWVRQAPGQGLEWMGGIIPMSGTANYAQKFQGRVTITADESTSTAYMELSSLRSEDTAVYYCARVEESGWYDHYHGMDVWGQGTTVTVSS
VL: DVVMTQSPLSLPVTPGEPASISCTSSQSLLYSNGFNYLDWYLQKPGQSPQLLIYLGSNRASGVPDRFSGSGSGTDFTLKISRVEAEDVGVYYCMQALTTHPTFGGGTKVDIK
In the case of B6, the Mean fluorescence intensity ratio stood at 51.5.

B7: iCADM3_3R1-L8 VHH-hG4PE(R409K) (Fc fusion, not shown: a dimerising Fc or GST)
chain: QVQLVESGGGLVQPGGSLRLSCAASGRTFSNYARGWFRQAPGKEREFVAAIDYSGGSTNYADSAKGRFTISRDNAKNTVYLQMNSLKPGDTAVYYCAAPASRRPSWDADGYDYWGQGTQVTVSS
As to B7, the Mean fluorescence intensity ratio turned out to be 6.91.
